Assay results taken from the supplement of paper PMC9732359.
± gives the uncertainty stated by the source.

Assay: protein stability index of a GFP-peptide fusion (yeast GPS) (PSI 1-4); higher = more stable; sorted into four equal gates, so the index is relative within each strain
In short: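 Peptides tiling yeast proteins in 17-residue segments were fused downstream of GFP, with Cherry expressed from the same plasmid. As a pooled library in yeast, mid-log cultures grown in leucine-free medium were sorted into four equal gates by GFP/Cherry fluorescence ratio. Gate plasmids were PCR-amplified and Illumina-sequenced, and barcodes linked reads to strains. Each peptide received a protein stability index equal to the sum of each gate's read frequency times its gate number.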

Row | Sequence | protein stability index (doa10∆) | protein stability index (pdr5∆) | protein stability index (san1∆) | protein stability index (ubr1∆)
1 | RKDTVSREVLRYEEFAD [RPC40] | 3.38 ± 0.11 | 3.59 ± 0.15 | 3.32 ± 0.082 | 3.3 ± 0.11
2 | PSLEKSSFTFGSTTIEK [YLR335W/NUP2] | 2.17 ± 0.058 | 2.65 ± 0.086 | 1.66 ± 0.15 | 2.01 ± 0.056
3 | HEAYSIIEKITDQILQL [RRP45] | 2.55 ± 0.22 | 2.31 ± 0.2 |  | 
4 | ALSQSSLLKTKLKQQSS [RRI1] | 2.13 ± 0.037 | 2.51 ± 0.035 | 2.22 ± 0.048 | 2.26 ± 0.035
5 | NVTETYSVYLIHEIRLN [SIR3] | 2.59 ± 0.23 | 1.98 ± 0.099 | 2.42 ± 0.14 | 2.37 ± 0.066
6 | ENNDDALDLDLDLFDPD [MED4] | 2.89 ± 0.067 | 2.98 ± 0.098 | 2.79 ± 0.052 | 3.1 ± 0.051
7 | DITDGKDYHTLANNVES [RPS18A] | 3.21 ± 0.052 | 3.31 ± 0.048 | 3.22 ± 0.042 | 3.22 ± 0.04
8 | AKSISTSAKEPSENDVF [RPO31] | 2.99 ± 0.072 | 3.06 ± 0.069 | 2.56 ± 0.083 | 3.2 ± 0.09
9 | EAQDEASLQQQQQQDLQ [SNF6] | 3.27 ± 0.14 | 3.15 ± 0.1 | 3.12 ± 0.073 | 3.2 ± 0.18
10 | VAKTAPNSNKTHTEQNN [SNF2] | 2.82 ± 0.04 | 3.07 ± 0.052 | 3.01 ± 0.033 | 3.06 ± 0.037
11 | AVTEREVLVTPGLEFLD [MCD1] | 2.85 ± 0.14 | 3.15 ± 0.15 | 2.75 ± 0.089 | 2.94 ± 0.13
12 | PLVIRRYLPDGSFEDWS [RPO26] | 3.43 ± 0.18 | 3.27 ± 0.18 | 3.44 ± 0.068 | 
13 | QGVYGAVYETLISRMIF [BRR2] | 2.46 ± 0.11 | 1.81 ± 0.093 | 1.36 ± 0.15 | 1.67 ± 0.045
14 | VPSTTNVNMTVNTMGTG [MED6] | 3.23 ± 0.3 | 3.37 ± 0.11 | 2.91 ± 0.17 | 2.61 ± 0.13
15 | VAEGKSKQDASPKPYAV [RPL8A] | 3.04 ± 0.12 | 3.29 ± 0.059 | 3.04 ± 0.07 | 3.02 ± 0.058
16 | SQTTLVQFGLNEETFTV [ARP9] | 2.85 ± 0.086 | 2.92 ± 0.072 | 2.77 ± 0.069 | 2.64 ± 0.059
17 | GQHKNNTSLNINGWKFE [SWP82] | 3.09 ± 0.075 | 3.21 ± 0.074 | 3.05 ± 0.063 | 2.99 ± 0.077
18 | GIKKHSLWRRTVYSLSQ [YDL116W/NUP84] | 1.44 ± 0.066 | 1.29 ± 0.071 | 1.29 ± 0.14 | 1.48 ± 0.041
19 | SALTSPTDSSKILQKRS [SIR3] | 2.99 ± 0.053 | 3.12 ± 0.054 | 2.92 ± 0.047 | 3.04 ± 0.039
20 | PSIIFIDEVDSIATKRF [RPT3] | 3.05 ± 0.096 | 3.1 ± 0.067 | 2.96 ± 0.046 | 3.19 ± 0.068

Row | Sequence | protein stability index (doa10∆) | protein stability index (pdr5∆) | protein stability index (san1∆) | protein stability index (ubr1∆)
21 | TPMTRISELPPQIRQEI [YGL172W/NUP49] | 2.84 ± 0.074 | 3.11 ± 0.055 | 2.65 ± 0.051 | 2.86 ± 0.043
22 | LQEKEQLYFKKKVNYKV [ISW2] | 2.96 ± 0.15 | 3.23 ± 0.15 | 3.26 ± 0.23 | 3.48 ± 0.12
23 | AKWAPTLRTISFKGSPN [SNF2] | 3.02 ± 0.16 | 3.11 ± 0.27 | 2.77 ± 0.15 | 2.51 ± 0.14
24 | TKKPLMVKNVKPSSPPD [SIR4] | 2.93 ± 0.061 | 2.66 ± 0.039 | 2.55 ± 0.058 | 2.69 ± 0.05
25 | LNLQFKAKVDDLVLGKP [YLR335W/NUP2] | 2.85 ± 0.11 | 3.39 ± 0.18 | 3.34 ± 0.067 | 3.3 ± 0.078
26 | SGEKIDFLLSDWNKRFS [BRR2] | 2.37 ± 0.061 | 2.72 ± 0.055 | 2.88 ± 0.067 | 2.79 ± 0.056
27 | TLIDLVKHSPGAIKPFT [ECM29] | 2.16 ± 0.2 | 2.93 ± 0.15 | 1.95 ± 0.2 | 2.92 ± 0.099
28 | NSISDFLGEQVNEPTKN [RPN1] | 3.32 ± 0.12 | 3.15 ± 0.13 | 3.34 ± 0.1 | 3.18 ± 0.091
29 | GLTTVWLLSALGNSIVK [REC8] | 1.61 ± 0.085 | 2.31 ± 0.075 | 2.13 ± 0.14 | 1.77 ± 0.12
30 | SFLHVDDKLAYIRVNHA [POP8] | 2.67 ± 0.08 | 2.29 ± 0.068 | 2.21 ± 0.11 | 2.56 ± 0.061
31 | DPQHKAIRRDARYNWIC [RPL15A] | 2.86 ± 0.088 | 3.31 ± 0.12 | 2.92 ± 0.16 | 3.11 ± 0.16
32 | IQKESTLHLVLRLRGGI [RPL40A] | 2.48 ± 0.11 | 2.6 ± 0.071 | 2.35 ± 0.1 | 2.54 ± 0.058
33 | QQLQVLARYLKMDLDNG [FAS2] | 1.9 ± 0.13 | 2.04 ± 0.089 | 2.78 ± 0.079 | 2.31 ± 0.051
34 | TVNGQARDLATMTYEEV [FAS1] | 2.96 ± 0.08 | 3.15 ± 0.056 | 3.03 ± 0.065 | 2.95 ± 0.045
35 | SSIVAIDWASPEYGRII [YGL100W/SEH1] | 2.57 ± 0.13 | 3.16 ± 0.13 | 2.82 ± 0.079 | 2.69 ± 0.061
36 | YTFKTSMRVKPSASLKL [YMR129W/POM152] | 2.42 ± 0.16 | 2.6 ± 0.11 | 2.31 ± 0.14 | 2.8 ± 0.097
37 | LTIKDIVLGVKDLQENL [RPO21] |  | 2.86 ± 0.29 | 3.6 ± 0.048 | 
38 | VPQTEEARAEAINLMGV [RPO31] | 3.15 ± 0.11 | 2.97 ± 0.1 | 3 ± 0.085 | 3.12 ± 0.052
39 | LPFYAILRSIPDKLLGV [COB] | 2.59 ± 0.041 | 2.07 ± 0.039 | 2.1 ± 0.055 | 1.99 ± 0.046
